Data as given in the supplement of paper PMC10567573.

B1: ATL3 (parent)
chain: YGLQGGMAFLDKRLQVKEHQHEEI

Variants of: B1
Assay: protein stability index of a GFP-peptide fusion (GPS, HEK-293T) (PSI 1-6); higher = more stable
Settings: c terminus: a fixed tail appended
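Further: lentivirally expressed fusions sorted by FACS into six bins by GFP to DsRed ratio, PSI derived from sequencing read proportions per bin multiplied by bin number.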

| Variant | protein stability index |
| --- | --- |
| YGLQGGMAFLDKRLQVKEHQHEGI | 3.58 |
| YGLQGGMAFLDKRLQVKEHQHEFI | 2.43 |
| YGLQGGMAFLDKRLQVKEHQHECI | 3.04 |
| YGLQGGMAFLDKRLQVKEHQHEAI | 1.94 |
| YGLQGGMAFLDKRLQVKEHQHEII | 2.66 |
| YGLQGGMAFLDKRLQVKEHQHEHI | 2.38 |
| YGLQGGMAFLDKRLQVKEHQHELI | 2.25 |
| YGLQGGMAFLDKRLQVKEHQHEMI | 3.12 |
| YGLQGGMAFLDKRLQVKEHQHEKI | 2.43 |
| YGLQGGMAFLDKRLQVKEHQHEDI | 3.04 |
| YGLQGGMAFLDKRLQVKEHCHEEI | 3.54 |
| YGLQGGMAFLDKRLQVKEHDHEEI | 3.09 |
| YGLQGGMAFLDKRLQVKEHAHEEI | 2.87 |
| YGLQGGMAFLDKRLQVKEHEHEEI | 2.5 |
| YGLQGGMAFLDKRLQVKEHSHEEI | 2.12 |
| YGLQGGMAFLDKRLQVKEHKHEEI | 1.85 |
| YGLQGGMAFLDKRLQVKEHPHEEI | 2 |
| YGLQGGMAFLDKRLQVKEHHHEEI | 3.12 |
| YGLQGGMAFLDKRLQVKEHRHEEI | 1.57 |
| YGLQGGMAFLDKRLQVKEHVHEEI | 2.99 |
| YGLQGGMAFLDKRLQVKEHFHEEI | 3.31 |
| YGLQGGMAFLDKRLQVKEHGHEEI | 3.57 |
| YGLQGGMAFLDKRLQVKEHTHEEI | 2.2 |
| YGLQGGMAFLDKRLQVKEHWHEEI | 1.55 |

| Variant | protein stability index |
| --- | --- |
| YGLQGGMAFLDKRLQVKEHNHEEI | 2.86 |
| YGLQGGMAFLDKRLQVKEHIHEEI | 2.56 |
| YGLQGGMAFLDKRLQVKEHYHEEI | 2.58 |
| YGLQGGMAFLDKRLQVKEHMHEEI | 2.35 |
| YGLQGGMAFLDKRLQVKMHQHEEI | 3.04 |
| YGLQGGMAFLDKRLQVKNHQHEEI | 2.32 |
| YGLQGGMAFLDKRLQVKSHQHEEI | 1.73 |
| YGLQGGMAFLDKRLQVKPHQHEEI | 2.37 |
| YGLQGGMAFLDKRLQVKRHQHEEI | 2.19 |
| YGLQGGMAFLDKRLQVKWHQHEEI | 3.87 |
| YGLQGGMAFLDKRLQVKHHQHEEI | 2.48 |
| YGLQGGMAFLDKRLQVKIHQHEEI | 3.67 |
| YGLQGGMAFLDKRLQVKLHQHEEI | 1.74 |
| YGLQGGMAFLDKRLQVKVHQHEEI | 1.9 |
| YGLQGGMAFLDKRLQVKTHQHEEI | 2.4 |
| YGLQGGMAFLDKRLQVKYHQHEEI | 2.61 |
| YGLQGGMAFLDKRLQVKKHQHEEI | 3.37 |
| YGLQGGMAFLDKRLQVKQHQHEEI | 1.99 |
| YGLQGGMAFLDKRLQVKEAQHEEI | 2.74 |
| YGLQGGMAFLDKRLQVKEPQHEEI | 2.5 |
| YGLQGGMAFLDKRLQVKEKQHEEI | 2.25 |
| YGLQGGMAFLDKRLQVKEVQHEEI | 3.03 |
| YGLQGGMAFLDKRLQVKESQHEEI | 2.01 |
| YGLQGGMAFLDKRLQVKEIQHEEI | 2.95 |

| Variant | protein stability index |
| --- | --- |
| YGLQGGMAFLDKRLQVKEDQHEEI | 3.38 |
| YGLQGGMAFLDKRLQVKEEQHEEI | 2.81 |
| YGLQGGMAFLDKRLQVKEYQHEEI | 2.76 |
| YGLQGGMAFLDKRLQVKENQHEEI | 2.6 |
| YGLQGGMAFLDKRLQVKEQQHEEI | 2.48 |
| YGLQGGMAFLDKRLQVKECQHEEI | 2.31 |
| YGLQGGMAFLDKRLQVKEGQHEEI | 2.65 |
| YGLQGGMAFLDKRLQVKEMQHEEI | 2.82 |
| YGLQGGMAFLDKRLQVKELQHEEI | 2.36 |
| YGLQGGMAFLDKRLQVKEWQHEEI | 3.59 |
| YGLQGGMAFLDKRLQVKETQHEEI | 2.54 |
| YGLQGGMAFLDKRLQVKEHQIEEI | 3.39 |
| YGLQGGMAFLDKRLQVKEHQREEI | 3.51 |
| YGLQGGMAFLDKRLQVKEHQKEEI | 3.21 |
| YGLQGGMAFLDKRLQVKEHQVEEI | 2.1 |
| YGLQGGMAFLDKRLQVKEHQQEEI | 2.44 |
| YGLQGGMAFLDKRLQVKEHQMEEI | 2.2 |
| YGLQGGMAFLDKRLQVKEHQSEEI | 3.88 |
| YGLQGGMAFLDKRLQVKEHQLEEI | 2.8 |
| YGLQGGMAFLDKRLQVKEHQDEEI | 2.11 |
| YGLQGGMAFLDKRLQVKEHQEEEI | 3.27 |
| YGLQGGMAFLDKRLQVKEHQFEEI | 1.6 |
| YGLQGGMAFLDKRLQVKEHQCEEI | 2.48 |
| YGLQGGMAFLDKRLQVKEHQYEEI | 2.55 |

| Variant | protein stability index |
| --- | --- |
| YGLQGGMAFLDKRLQVKEHQTEEI | 3.49 |
| YGLQGGMAFLDKRLQVKEHQAEEI | 2.51 |
| YGLQGGMAFLDKRLQVKEHQPEEI | 2.33 |
| YGLQGGMAFLDKRLQVKEHQHPEI | 2.96 |
| YGLQGGMAFLDKRLQVKEHQHNEI | 3.19 |
| YGLQGGMAFLDKRLQVKEHQHMEI | 2.24 |
| YGLQGGMAFLDKRLQVKEHQHQEI | 1.75 |
| YGLQGGMAFLDKRLQVKEHQHAEI | 2.54 |
| YGLQGGMAFLDKRLQVKEHQHGEI | 2.8 |
| YGLQGGMAFLDKRLQVKEHQHWEI | 2.76 |
| YGLQGGMAFLDKRLQVKEHQHIEI | 2.94 |
| YGLQGGMAFLDKRLQVKEHQHLEI | 2.68 |
| YGLQGGMAFLDKRLQVKEHQHHEI | 2.91 |
| YGLQGGMAFLDKRLQVKEHQHVEI | 1.45 |
| YGLQGGMAFLDKRLQVKEHQHREI | 2.16 |
| YGLQGGMAFLDKRLQVKEHQHCEI | 2.48 |
| YGLQGGMAFLDKRLQVKEHQHFEI | 2.03 |
| YGLQGGMAFLDKRLQVKEHQHDEI | 2.48 |
| YGLQGGMAFLDKRLQVKEHQHSEI | 3.33 |
| YGLQGGMAFLDKRLQVKEHQHKEI | 1.86 |
| YGLQGGMAFLDKRLQVKEHQHTEI | 1.9 |
| YGLQGGMAFLDKRLQVKEHQHYEI | 2.6 |
